Data published in patent US20080187577A1 (University of Texas, published 2008).

Target: T1, CCK2R on AR42J cells (UniProt P30553 1-452, limits assumed)
T1 construct: whole, on cells
T1 sequence (looked up): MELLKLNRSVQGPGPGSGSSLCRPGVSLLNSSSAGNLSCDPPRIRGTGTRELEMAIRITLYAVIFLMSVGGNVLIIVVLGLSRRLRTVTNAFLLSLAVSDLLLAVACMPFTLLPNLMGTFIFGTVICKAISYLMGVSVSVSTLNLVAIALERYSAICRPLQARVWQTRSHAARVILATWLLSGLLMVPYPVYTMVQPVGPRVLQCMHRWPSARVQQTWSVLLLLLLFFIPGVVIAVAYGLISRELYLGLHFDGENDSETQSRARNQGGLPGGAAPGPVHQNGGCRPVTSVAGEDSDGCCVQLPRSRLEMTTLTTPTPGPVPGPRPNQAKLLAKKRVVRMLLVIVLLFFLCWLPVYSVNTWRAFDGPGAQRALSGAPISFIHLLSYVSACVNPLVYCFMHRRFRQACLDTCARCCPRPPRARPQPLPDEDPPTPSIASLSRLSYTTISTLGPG
Test: displacement of ^125I-BH-CCK8 from AR42J cells
Procedure: For these experiments, AR42J cells were expanded in vitro in 175 mm flasks and grown to subconfluence in the growth medium containing 10% FCS. All binding assays were performed 36-48 h after seeding the cells in culture medium containing 10% FCS and 2% glutamine. Before the start of the binding assays, the cells in culture were washed with Hanks Balanced salt solution (HBSS) (GIBCO) containing 0.1% BSA and 25 mM HEPES (Sigma) and scraped with a rubber policeman into conical tissue culture polystyrene tubes. Cells were centrifuged at 500 g for 5 min and resuspended in HBSS at a concentration of 2×10⁶ cells/ml. Aliquots (˜1.0 ml) of suspended cells in polystyrene tubes were used in the binding assays. […] Binding assays were performed at 37° C. for 30-60 min at pH 6.5 (optimal for binding).
Non-specific binding was determined in the presence of 1000× excess of the non-labeled homologous peptide. At the end of the incubation, the cells were pelleted and washed twice with 1 ml of fresh ice-cold HBSS plus 0.1% BSA. Cell pellets were counted for ¹²⁵I in a gamma counter with ˜70% efficiency for ¹²⁵I.

- binding result: no binding
B1: full-length recombinant human PG1-80 (rhPG) (ligand)
chain: SWKPRSQQPDAPLGTGANRDLELPWLEQQGPASHHRRQLGPQGPPHLVADPSKKQGPWLEEEEEAYGWMDFGRRSAEDEN
notes: Expressed in E. coli from pET32 as a thioredoxin fusion and purified; also called recombinant human progastrin; progastrin
